Paper PMC10703496

Columns and labels:
[1] = target: ACE2(18–740)-QMP: truncated dimeric human ACE2 (residues 18–740) fused to the N-terminal end of engi (human) (UniProt Q9BYF1); test: SPR; pH 5.5
[2] = target: ACE2(18–740)-QMP: truncated dimeric human ACE2 (residues 18–740) fused to the N-terminal end of engi (human) (UniProt Q9BYF1); test: SPR

soluble His-tagged human neonatal Fc receptor (human FcRn-His), sequence (P55899 24-297): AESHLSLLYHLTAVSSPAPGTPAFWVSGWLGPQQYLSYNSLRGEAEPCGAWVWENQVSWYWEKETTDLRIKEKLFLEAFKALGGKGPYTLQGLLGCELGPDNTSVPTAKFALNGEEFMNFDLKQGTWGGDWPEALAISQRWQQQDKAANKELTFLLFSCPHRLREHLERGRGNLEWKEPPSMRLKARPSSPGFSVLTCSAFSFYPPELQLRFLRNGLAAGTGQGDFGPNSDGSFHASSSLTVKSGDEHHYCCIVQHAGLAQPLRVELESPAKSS
soluble His-tagged human neonatal Fc receptor (human FcRn-His), sequence (P61769 21-119): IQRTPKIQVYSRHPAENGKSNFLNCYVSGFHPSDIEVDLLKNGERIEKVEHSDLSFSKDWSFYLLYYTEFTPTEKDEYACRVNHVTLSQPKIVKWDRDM

“soluble His-tagged human neonatal Fc receptor (human FcRn-His) (from UniProt P55899 24-297; P61769 21-119)” was tested, and the Kd [1] was 800 pM, the koff [1] was 0.0002 s⁻¹ and the kon [2] was 254000 M⁻¹ s⁻¹.
